Results: the supplement of paper PMC9170038

Assays:
[1] = test system: MS2 coat protein; assay: apparent KD of MS2 coat protein; designed switch direction (-1 OFF switch, 1 ON switch): 1; higher = weaker reporter binding; conditions: Eterna round: R98
Protocol: (§1)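 RNA-MaP: designed FMN/MS2 RNA switches (84 nt design region) are transcribed on-chip within common flanks and titrated with SNAP-549-labelled MS2 coat protein (about 1-3000 nM) in 100 mM Tris pH 7.5, 80 mM KCl, 4 mM MgCl2, without or with 200 uM FMN. Median apparent KD per design; activation ratio = KD,OFF / KD,ON.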

[2] = test system: MS2 coat protein; assay: apparent KD of MS2 coat protein; higher = weaker reporter binding; conditions: Eterna round: R101
Protocol: as §1

[3] = test system: MS2 coat protein; assay: apparent KD of MS2 coat protein, switch OFF state (with FMN for OFF switches, without FMN for ON switches); designed switch direction (-1 OFF switch, 1 ON switch): 1; higher = weaker reporter binding; conditions: FMN input: 0 or 200 uM; Eterna round: R93 (includes R88 designs)
Procedure, shortened: (§2)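 With or without constant ligand, designed RNA switches in 100 mM Tris-HCl pH 7.5, 80 mM KCl and 4 mM MgCl2 were titrated with SNAP-549-labelled MS2 coat protein. Concentrations went up in twofold steps from 0.7 or 1.5 nM to 3 µM. The switches had been transcribed on-chip from Illumina sequencing clusters, and apparent KD is the per-design median of normalised cluster binding-curve fits.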

[4] = test system: MS2 coat protein; assay: apparent KD of MS2 coat protein, switch ON state; designed switch direction (-1 OFF switch, 1 ON switch): 1; higher = weaker reporter binding; conditions: FMN input: 0 or 200 uM; Eterna round: R93 (includes R88 designs)
Procedure, shortened: as §2

Row | Sequence | apparent KD of MS2 coat protein ([1]; input ligand: FMN 200 uM) [nM] | apparent KD of MS2 coat protein ([1]; input ligand: none) [nM] | apparent KD of MS2 coat protein ([2]; input ligand: FMN 200 uM) [nM] | apparent KD of MS2 coat protein ([2]; input ligand: none) [nM] | further results
1 | GGUCCAACAUGAGGAUAUGGCACCUUAUUGGUGCCAGAAGGCGUGUCUAUAGACAUGAGGAUCACCCAUGUAAUAAAUUGGACC [SameState #22 NG1] | 45.4 | 796 |  |  | 
2 | ACAGGUCGUGAGAAGGCGGGUGGCACCGUCGAAAGACGGUGCAAUUAAAAUCUUCGAGGAUCACCCGAGGAUAUCACGACCUGA [#SharedSequence - IExNG2: 17] (puzzle (switch architecture): Inverted Exclusion NG 2) |  |  | 28.6 | 55.9 | 
3 | UUUGGGAGCACAGGAUAUGGCGCCUCGGAGGCGCCAGAAGGGUGAUUCUGUUGGUGGCCACAUGAGGAUCACCCAUGUGCCUCC [Rienorarve] | 19.2 | 15.9 |  |  | 
4 | AGACCUGCUCAGAAGGCGGAUACGAGGCUGGAAACAGCCUCGUAAUUAAAUCUUCGAGGAUCACCCGAGGAUAUGAGCAGGUCA [#SharedSequence - IExNG2: 13] (puzzle (switch architecture): Inverted Exclusion NG 2) |  |  | 28.4 | 10.3 | 
5 | CUGCAAAUCUUAGGAUAUGCUCAGGAAUACUGAGCAGAAGGAAGAUAUACCUGAGGAUCACCCAGGUAAAACUGGAGCAGAAUA [Same State NG1 - A3C, U17G Submission 8G U68A, U7A] | 24.3 | 26.6 |  |  | 
6 | GACCGUCCCACAGGAUAUAGAAGGGCGUCCGUUCUAGAAGGGUGAUCAGGACCAAAAGGUCACAUGAGGAUCACCCAUGUAGGU [Usorti] | 43.7 | 36.6 |  |  | 
7 | CAUGUCCUCACAGGAUAUGCUGGACUUUGUCCAGCAGAAGGGUGAUAACAUGAGGAUCACCCAUGUGGACAUGAUAUAUUUAAG [Mat - Same State NG 1 - Eli mod - D95] | 623 | 106 |  |  | 
8 | GGACUCACUUGAGGAUAUCGAGUGGAAUACACUCGAGAAGGCAGGAAAACCUGAGGAUCACCCAGGUAAGAGUCCAAUAAUAAU [Same State NG1 - A3C, U17G Submission 3C] | 17.1 | 17.9 |  |  | 
9 | AAAGAUUUUUAAGGAUAUCAGUGGCAAAGCCACUGAGAAGGUGAGGAUCACCCAUCUACGUGACCCUGGAAACAGGGUCACGAA [#SharedSequence - ExNG1-16] (puzzle (switch architecture): Exclusion NG 1) |  |  | 96.9 | 56.7 | 
10 | AUAAUAACUUGAGGAUAUGCUCAGGAAUACUGAGCAGAAGGCAGGGAAACCUGAGGAUCACCCAGGUAAAUAAUAAUAAUAAUA [Same State NG1 - A3C, U17G Submission 1B] | 19.3 | 24.5 |  |  | 
11 | AAAGAUUUUUAAGGAUAUGACUCCGAAACGGAGUCAGAAGGUGAGGAUCACCCACCUAGCUCAGGGUCGAAAGACCCUGAGCAA [#SharedSequence - ExNG1-13] (puzzle (switch architecture): Exclusion NG 1) |  |  | 9.48 | 9.02 | 
12 | GGCCGGCAGCUAGGAUAUGGGCGGUCACAUGAGGAUCACCCAUGUCAACAUCAAAACCAGAUUAACCAGAAGGAGCUGCGAGUU [Arza] | 1230 | 27.6 |  |  | 
13 | UAUAUAUAAUAUAUUAACAUGAGGAUCACCCAUGUCGCUAGACAGGAUAUAUUUAAUAUUAUUAAGUAGAAGGGUCAUAUAAUU [LRO007_SS NG 3] | 77.4 | 78.6 |  |  | 
14 | AUAAUAACUUGAGGAUAUGCUCAGGAAUACUGAGCAGAAGGCAGGGAAACCUGAGGAUCACCCAGGUAACUGGAAUAAUAAUAA [Same State NG1 - A3C, U17G Submission 4A] | 25.6 | 25.8 |  |  | 
15 | UAGAAGCUCACAGGAUAUCAGUAUGCGCGAUCUAACGCAUUAAUGAACUGCUGAGAAGGGUGAGACAUGAGGAUCACCCAUGUA [Enesraadi] (puzzle (switch architecture): Small Loop Same State NG 1) |  |  | 395 | 236 | 
16 | UCGUGUUUAACAGGAUAUCCUCAACGACACAUGAGGAUCACCCAUGUUCGGAGCCAAAUGGCUUAGGAGAAGGGUUAGAAACAA [Isceenvere] | 75.8 | 701 |  |  | 
17 | GCUGUCGCAUGAGGAUAUGGUCUGCUUUGCAGACCAGAAGGCAUGUCGAUAGACAUGAGGAUCACCCAUGUAGUAAAGACAGCA [Mat - Same State NG 1 - JL Mod - D49] | 57.1 | 306 |  |  | 

Row | Sequence | apparent KD of MS2 coat protein ([1]; input ligand: FMN 200 uM) [nM] | apparent KD of MS2 coat protein ([1]; input ligand: none) [nM] | apparent KD of MS2 coat protein ([2]; input ligand: FMN 200 uM) [nM] | apparent KD of MS2 coat protein ([2]; input ligand: none) [nM] | further results
18 | UAAAUAAAUCCUAGAGGAUCACCCUAGGAUAUGAGGCUGCACCUCGGAUAAUCCGAGGUGCAGCCUCAGAAGGAGGGUAAUAAA [#SharedSequence - SLExNG3: 1-2] (puzzle (switch architecture): Small Loop Exclusion NG 3) |  |  | 43.1 | 14.4 | 
19 | CUAAUAUAGUGAGGAUAUGCACAGGAUCACCGUGUAGAAGGCAUCAGGUAGAAGGUGCAGAGGAUCACCCUGUAAGGAUAUACC [pwkr2 ssNG1 DX.4] | 32.4 | 69.4 |  |  | 
20 | CCGGAAACGGGUAGCUGACAUGAGGAUCACCCAUGUGAUACACAGGAUAUGGAUCCUAAUUGGAUCCAGAAGGGUGUCAGCUAC [Mat - Same State NG 3 - JL Mod - D84] | 130 | 1270 |  |  | 
21 | CGAGACACUUGAGGAUAUGCUCAGGAAUACUGAGCAGAAGGCAGGAAAACCUGAGGAUCACCCAGGUAACUGGAAAGUCUCGAA [Same State NG1 - A3C, U17G Submission 5E-G46A] | 16.9 | 19.6 |  |  | 
22 | AAAACAUGAGGAUCACCCAUGUAAGAAUAAUUAAUUAUAAGUGAGGAUAUAUAAAUUAUAAAAUUGUAGAAGGCACUGGGUAUC [JR_SSNG3_Sub083] | 83.6 | 71 |  |  | 
23 | CCUGCACUUCAAGGAUAUCCAGUCGAAACGACUGGAGAAGGUGAGGAUCACCCAUCUAGCCUGACGAAAGUCAGGCAUGCAGGA [#SharedSequence - ExNG1-7] (puzzle (switch architecture): Exclusion NG 1) |  |  | 101 | 90.4 | 
24 | CCUGCACUUCAAGGAUAUCCAGUCGUUUCGACUGGAGAAGGUGAGGAUCACCCACCUAGCCUGACGUUUGUCAGGCAUGCAGGU [#AddUracilToBrourdLoops 3 - Jieux - Exclusion NG1] (puzzle (switch architecture): Exclusion NG 1) |  |  | 8.78 | 8.76 | 
25 | GUAGCAUUCUGAGGAUAUUCAUACCGGAAACGGACAUGAGGAUCACCCAUGUGGCGAAAGCCUUGGGAGAAGGCAGUAUGCUAC [#DoubleMagnetSystem - Xeonanis 25 9 - Original] (puzzle (switch architecture): Same State NG 2) |  |  | 9.21 | 247 | 
26 | GCCAUCGCAUGAGGAUAUGGCACCGUUUCGGUGCCAGAAGGCAUGUCAUAAGACAUGAGGAUCACCCAUGUAAAUAAGAUGGCA [JanderMod 3 - Jieux - Same State NG 1] | 47.9 | 715 |  |  | 
27 | GGUCGACCUCAAGGAUAUGGACUGCUUUGCAGUCCAGAAGGUGAGGAUCACCCAUCUACGGUCAGGUUUCUGACCGAUCGACCU [#AddUracilToBrourdLoops 6 - Jieux - Exclusion NG1] (puzzle (switch architecture): Exclusion NG 1) |  |  | 260 | 282 | 
28 | ACUAGAAACGGGCAAUAACACAUGAGGAUCACCCAUGUGACACAGGAUAUAACCAGAUCAGAAAGUUAGAAGGGUGAGCCCGCA [Edraed Mod 1 - Jieux - Same State NG3] | 23.8 | 23.7 |  |  | 
29 | AUAAUAACUUGAGGAUAUGCUCAGGAAUACUGAGCAGAAGGCAGGGAAACCUGAGGAUCACCCAGGUGAAUAAUAAUAAUAAUA [Same State NG1 - A3C, U17G Submission 1A] | 18.3 | 23.4 |  |  | 
30 | GCUGCUAUCGCAGGAUAUUACAUGGGAAAUAAAACAUGAGGAUCACCCAUGUUAAAUAUCGUAAAUAAGAAGGGCGAUAGCAGC [Lame State 2 - Jieux - Same State NG 2] | 178 | 1120 |  |  | 
31 | AAAACAUACCGAGGAUAUUCAUAUAAUAAAUAAACAUGAGGAUCACCCAUUUGGCAAAAGCCUAGGGAGAAGGCGGAAUGCUAA [salish99_SSNG2_r2_119] | 658 |  |  |  | 
32 | AAGAAAGAAACGCAGGAUAUGCAAAACAAAACAUGAGGAUCACCCAUGUCUUACUUACAAACAAAGCAGAAGGGCGAAAGAAAGAA [Same State 2 B] |  |  |  |  | apparent KD of MS2 coat protein [3]: 20 nM; apparent KD of MS2 coat protein [4]: 16.4 nM
33 | AUAUGAGCUAUGGAGGAUAUCCACAAUAAAACAUGAGGAUCACCCAUGUAAGAAAGAAAAGAAUGGGAGAAGGCCAUAGCUCAAU [SS 2 M45] |  |  |  |  | apparent KD of MS2 coat protein [3]: 17.5 nM; apparent KD of MS2 coat protein [4]: 7.54 nM
